± gives the uncertainty stated by the source.
Assay: amyloid nucleation score (Sup35N fusion, yeast selection) (log enrichment); library NNK1; higher = more nucleation; inactive = no reads after selection
Summary of the method: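 The nucleation score is the DiMSum log enrichment of output over input reads, centred on the mode score of non-aggregating sequences. Only sequences with 100 or more input reads were scored, using Illumina sequencing of input and output plasmid inserts. Psi-negative yeast expressing Sup35N fused to peptides of 20 random codons were induced 24 hours with 100 μM copper sulfate and grown 7 days at 30°C on medium lacking adenine and uracil.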

| Substance | amyloid nucleation score |
| --- | --- |
| YQDVVDSDD | -0.762 ± 0.64 |
| FCGDVKLMYWSRFVLMKGHQ | -1.18 ± 1.1 |
| INRFEG | -0.385 ± 0.68 |
| VANQNHLSCDIMSSARCERH | 0.244 ± 0.65 |
| DPGPLARKVGRRIEAAIMVA | 0.992 ± 0.49 |
| VILFNSNTEYQKLEQLLELW | 0.153 ± 0.23 |
| WNEADWHMCH | 1.34 ± 0.38 |
| RSVMVMLPS | 0.022 ± 0.37 |
| LMRRGGCVYVGFFWELVCFQ | -0.524 ± 0.83 |
| GGVLGSTKSLFVDPANLGGL | inactive |
| DSRFHSLGVLAHMPRDCNCG | 0.853 ± 0.86 |
| IYCHWNGFRGPYVIPRGCVV | 0.819 ± 0.51 |
| YYLDGTGLWVNCVRMARGCG | 1.16 ± 0.78 |
| DNRFERAVWVPHL | 3.78 ± 0.12 |
| WKVVCNVPVVWFFLKRLHLL | 0.498 ± 0.38 |
| VIMCVSRCTVRCV | 0.486 ± 0.52 |
| IIISTGVRFTEDSCGFAWAE | -0.009 ± 0.66 |
| AQSPQVNSLWCGMNFTTFPG | 1.92 ± 0.2 |
| KRFTRTNILRMTCT | 0.901 ± 0.48 |
| RERSIWFSFDGCRRRRRYGG | 1.41 ± 0.78 |
| MKQQAQPVFVWSSAGGGCES | -0.606 ± 0.47 |
| KHPEM | 1.43 ± 0.38 |

| Substance | amyloid nucleation score |
| --- | --- |
| IACCVRSVECGRGCQLRGLA | 0.217 ± 0.83 |
| NTLCLHDFFHGLILWLSHQA | 1.01 ± 0.49 |
| IGGLSGEYWFHLLSSSVLFF | inactive |
| AFAVSSYWVRGIHRESYGSV | 0.591 ± 0.69 |
| SSKVERG | -0.139 ± 1.3 |
| RPKCWWVIGCIKRKSMSIGR | 2.17 ± 0.081 |
| HAIFCLSKLTFLGPILGSFT | 7.112 ± 0.048 |
| STKADTSRALVLCRGDC | -0.18 ± 0.59 |
| TICNEINQFKAK | 0.35 ± 0.59 |
| AYNAECSVWSRRCSIAVMDL | 0.757 ± 0.58 |
| VPFLYVG | -0.792 ± 0.62 |
| MAFMLWLDYW | 0.395 ± 0.32 |
| YWFFSIMSSYSVNTQM | 1.64 ± 0.8 |
| KCTENLFRHCIRLEGSTWKF | -1.34 ± 2.7 |
| VLLWVGLTYATGLGRRSSLF | -1.3 ± 0.97 |
| MRSKREMSFMTHEILVCNDA | 0.509 ± 0.31 |
| DDLQCITLRFTRDASRGVSL | 0.843 ± 0.84 |
| YASVIVTQHRTMICRQTLCR | 1.46 ± 0.51 |
| IISDDNSGMWWVMFLV | 0.065 ± 0.61 |
| TFMHARDYDMNS | -0.666 ± 0.86 |
| GSYGNDVWRP | -0.041 ± 0.47 |
| SGCGPNGIRFWVRLEVGNTT | 0.016 ± 0.33 |

| Substance | amyloid nucleation score |
| --- | --- |
| PYLTICKIDYFYYLGRDSFF | 4.47 ± 0.055 |
| FRSTPWNPMSTELVIFSPSV | 1.16 ± 0.43 |
| SMAIVDRWLMQGSSQPAGS | 0.702 ± 0.53 |
| SCERW | -0.111 ± 0.45 |
| MDLKTY | -0.696 ± 0.46 |
| VDEETMCSFLSLGKVY | 0.474 ± 0.69 |
| YPCNLFCMMTLLNYLGSSVA | 6.49 ± 0.074 |
| YFVMITCFYVILL | -0.126 ± 0.2 |
| ITPYQQFWLIVDTIGNMMEI | 2.07 ± 0.2 |
| LVCSIMWNGVRHAPVRCKPT | -0.382 ± 0.47 |
| RFFPDNNCMQCDATAEDTGL | -0.246 ± 1.4 |
| GSTENTVYRRGEFGELVWKC | -0.311 ± 0.44 |
| SVGTDY | -0.465 ± 1.6 |
| TLSTRTIHSCSEYYSGMCVL | 0.089 ± 0.93 |
| RDTVTSNSSVT | 4.36 ± 0.095 |
| LGRGRKSTMVSQRVERAGVC | -0.626 ± 0.58 |
| MSLMSRDVVMHIGMSWYSRG | 4.21 ± 0.12 |
| CLFDATVLNVLYQEIAEPRR | inactive |
| VSFSCLMSPE | 0.126 ± 0.32 |
| GFKGQRNNAIQVMGKKNRLQ | -0.238 ± 0.59 |
| YSNLIDGS | 7.378 ± 0.047 |
| FTAWP | -0.242 ± 0.3 |

| Substance | amyloid nucleation score |
| --- | --- |
| FLICDGSDRQMF | 0.315 ± 0.23 |
| TMKVGYQGICYTETSGMSFV | inactive |
| SLDVICPGVYLEMLGRESIL | -0.416 ± 0.84 |
| GVMACDMCCPNKRVSEPRAS | -0.278 ± 0.41 |
| RVEKCWAMTDKCIRHRFLTS | 0.774 ± 0.48 |
| IIFCMVFDSVSDDVLYITSK | -0.941 ± 0.99 |
| LAPMDLCGGSVAFR | 0.47 ± 0.4 |
| YKLFGFFGRHPVNWYV | 0.344 ± 0.51 |
| EGRTWRGSRRGLHLDSPRMC | 0.438 ± 0.95 |
| CVFVRMMCTRFAAHHCVLSG | -0.143 ± 1.2 |
| HSCSVPLWIWRFSVRAKGCK | 0.562 ± 0.57 |
| YLLLLDGGPSPVLAIRHVNG | -0.989 ± 0.76 |
| VDRGCKYKQLMREVVSEHVI | 0.753 ± 0.63 |
| MRISFAITCTVTN | 0.248 ± 0.28 |
| PDTYRLWRWSCIFEKCCDEG | -0.194 ± 0.41 |
| PVYMGIAALYGPGCLTLLTV | 2.07 ± 0.3 |
| TSPYDSNGLFAMLAELHFYS | 0.082 ± 0.78 |
| LPGFYDRKICKSLSMIYRLS | -0.405 ± 1.7 |
| DMEKVV | 0.408 ± 0.6 |
| DVSLNVNLYVHRFMCHQVPI | 0.515 ± 0.28 |

Source: the supplement of paper PMC12042874
